Literature values as cited in paper PMC3274258.
Several values for one entry are separate records, joined by “and”; a condition that tells them apart may be missing. Equal values may be shown once. Read-outs that look alike come from different tables or passages of the source.

Columns and labels:
[1] = target: HtrII (Natronomonas pharaonis) (UniProt P42259)
[2] = target: HtrII (Natronomonas pharaonis) (UniProt P42259); remark: listed apart in the source
[3] = target: HtrII (Natronomonas pharaonis) (UniProt P42259); remark: listed apart in the source
[4] = target: Salinibacter transducer of SRI (SrHtrI); test: pH titration experiments (ref 123; detection not specified in the review)
[5] = system: Asp72; test: pH titration; the review does not name the technique, and UV-vis absorption of the retinal chromophore is inferred; details: dark state
[6] = target: Halobacterial transducer of SRI (HsHtrI); test: not stated in the review (pKa determination quoted from ref 124); details: pH
[7] = target: Asp76 (UniProt position 76, GLRYIDWLVTT)
[8] = target: Halobacterial transducer of SRII, truncated (NpHtrII, pHtrII) (UniProt P42259); test: not stated in the review (pKa determination of ref 50); details: pH
[9] = target: Asp193 (UniProt position 193, LTPTVDVALIV); details: dark (ground) state

Sequence of HtrII (Natronomonas pharaonis) (P42259 whole entry): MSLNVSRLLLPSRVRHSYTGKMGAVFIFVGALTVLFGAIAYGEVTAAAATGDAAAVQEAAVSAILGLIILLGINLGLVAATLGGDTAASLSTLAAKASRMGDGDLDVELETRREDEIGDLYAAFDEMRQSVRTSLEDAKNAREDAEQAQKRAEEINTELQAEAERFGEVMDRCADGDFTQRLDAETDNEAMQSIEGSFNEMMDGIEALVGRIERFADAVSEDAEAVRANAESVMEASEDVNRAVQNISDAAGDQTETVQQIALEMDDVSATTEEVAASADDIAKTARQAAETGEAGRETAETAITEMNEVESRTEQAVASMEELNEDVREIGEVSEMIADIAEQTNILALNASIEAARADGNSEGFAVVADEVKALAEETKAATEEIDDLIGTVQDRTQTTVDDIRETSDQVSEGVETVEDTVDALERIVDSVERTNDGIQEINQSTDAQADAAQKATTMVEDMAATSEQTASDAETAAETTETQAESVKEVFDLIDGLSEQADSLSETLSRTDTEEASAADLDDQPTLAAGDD
Sequence of SRII (P42196 whole entry): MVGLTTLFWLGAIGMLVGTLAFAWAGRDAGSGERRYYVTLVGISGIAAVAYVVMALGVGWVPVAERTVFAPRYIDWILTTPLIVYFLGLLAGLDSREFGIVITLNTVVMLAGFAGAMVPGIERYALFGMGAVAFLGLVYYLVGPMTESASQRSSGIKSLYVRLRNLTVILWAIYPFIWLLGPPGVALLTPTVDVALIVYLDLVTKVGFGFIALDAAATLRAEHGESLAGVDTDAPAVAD
Sequence of Halobacterial transducer of SRII, truncated (NpHtrII, pHtrII) (P42259 whole entry, the tested form may be a part): as the sequence (P42259 whole entry) above

## SRII (from UniProt P42196)
[1]
  Kd: 0.16 µM
[2]
  Kd: 5 µM
[3]
  Kd: 15 µM

## Salinibacter sensory rhodopsin I (SrSRI)
[4]
  pKa, Asp72 of SrSRI (Schiff-base counterion): 4.3 pH units and 4.9 pH units

## Salinibacter sensory rhodopsin I (SrSRI) (Salinibacter ruber)
[5]; SrSRI without SrHtrI
  pKa: 4.3

## Sensory rhodopsin I (HsSRI)
[6]
  pKa, Asp76 of HsSRI (Schiff-base counterion): 7.2 pH units and 8.5 pH units

## Sensory rhodopsin I (HsSRI) (Halobacterium salinarum)
[7]; HsSRI associated with HsHtrI
  pKa: 8.5
[7]; HsSRI without HsHtrI
  pKa: 7.2

## Sensory rhodopsin II (NpSRII, pharaonis phoborhodopsin, ppR)
[8]
  pKa, Asp193 of NpSRII: 6.4 pH units and 5.6 pH units

## Sensory rhodopsin II (NpSRII; pharaonis phoborhodopsin, ppR) (Natronomonas pharaonis)
[9]; NpSRII bound to truncated NpHtrII (1-114 or 1-159)
  pKa: 5.6
[9]; NpSRII transducer-free
  pKa: 6.4

## SrSRI-SrHtrI fusion (Salinibacter sensory rhodopsin I fused to its full-length transducer) (Salinibacter ruber)
[5]; SrSRI associated with SrHtrI (fusion construct)
  pKa: 4.9
